Test results from patent US20150017154A1 (NEXVET AUSTRALIA, published 2015).

Legend:
[1] = molecular target: T1, complement C1q (from human serum) (human, UniProt P02745 23-245; P02746 28-253; P02747 29-245); test: C1q ELISA: antibody captured on mouse NGF-coated plate, human serum, anti-C1q-HRP
T1 construct: Native C1q in human serum diluted 1/100
Protocol: CHO cell transfectant supernatants from Example 2 were incubated with plates coated with […] NGF to capture the antibodies. The plates were washed and then incubated with human serum and bound complement C1q was measured by binding of anti-human C1q polyclonal antibody HRP and developed as above.
Plates were coated with 100 μl/well of 5 μg/ml mouse NGF and blocked with 5% BSA/PBS. Coated wells were incubated for 1 hour at room temperature with cell culture supernatants, containing recombinant caninised anti-NGF IgG, diluted in PBS/1% BSA (100 μl/well). The plates were washed and incubated for 1 hour at room temperature with 100 μl/well of human serum diluted 1/100 in veronal buffered saline containing 0.5 mM MgCl₂, 2 mM CaCl₂, 0.05% Tween-20, 0.1% gelatin and 0.5% BSA. After washing, plates were incubated with 100 μl of a 1/800 dilution of sheep anti-C1q-HRP (Serotec) in PBS/1% BSA. After washing, plates were developed by the addition of 100 μl TMB substrate (Thermo Scientific). Development was stopped by the addition of 100 μl of 2N H₂SO₄ and absorbance read at 450 nm.

mouse NGF = molecular target: T2, mouse NGF (mouse, UniProt P01139 122-241, limits assumed); test: ELISA, CHO supernatant on coated NGF, anti-canine IgG-HRP
T2 construct: Coated on ELISA plates; also called murine NGF
Protocol: Combinations of caninised heavy and light chain cDNAs were transfected into CHO cells, the supernatants harvested and reacted in ELISA format with either canine or murine NGF. Following incubation and wash steps, the bound canine antibody was detected by reactivity with a goat-anti canine IgG specific polyclonal antibody linked to horseradish peroxidase (HRP) and developed using TMB. The optical density of the resulting product was measured at 450 nm and compared with that from mock empty vector transfected supernatant (denoted as “Mock” in FIG. 1).

T1 sequence (P02745 23-245 limits assumed, chain 1 of 3): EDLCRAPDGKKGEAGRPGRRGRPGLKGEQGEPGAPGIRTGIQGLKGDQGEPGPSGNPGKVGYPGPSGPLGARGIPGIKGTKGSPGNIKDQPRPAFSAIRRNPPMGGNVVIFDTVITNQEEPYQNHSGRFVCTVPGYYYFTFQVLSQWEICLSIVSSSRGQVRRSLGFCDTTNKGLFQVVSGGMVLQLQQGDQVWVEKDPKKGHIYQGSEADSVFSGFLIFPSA
T1 sequence (P02746 28-253 limits assumed, chain 2 of 3): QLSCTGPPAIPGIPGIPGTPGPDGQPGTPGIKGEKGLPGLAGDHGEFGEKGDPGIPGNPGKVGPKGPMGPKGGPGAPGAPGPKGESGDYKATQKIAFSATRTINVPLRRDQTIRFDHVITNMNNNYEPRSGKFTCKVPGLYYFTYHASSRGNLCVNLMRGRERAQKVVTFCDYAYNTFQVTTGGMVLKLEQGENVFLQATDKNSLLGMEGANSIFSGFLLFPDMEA
T1 sequence (P02747 29-245 limits assumed, chain 3 of 3): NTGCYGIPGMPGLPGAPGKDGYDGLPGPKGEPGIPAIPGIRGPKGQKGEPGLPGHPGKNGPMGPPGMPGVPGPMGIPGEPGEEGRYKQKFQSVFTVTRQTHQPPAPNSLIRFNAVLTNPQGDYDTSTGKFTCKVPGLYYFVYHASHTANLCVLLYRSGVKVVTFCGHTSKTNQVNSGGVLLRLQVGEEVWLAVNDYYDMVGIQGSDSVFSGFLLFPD
T2 sequence (P01139 122-241 limits assumed): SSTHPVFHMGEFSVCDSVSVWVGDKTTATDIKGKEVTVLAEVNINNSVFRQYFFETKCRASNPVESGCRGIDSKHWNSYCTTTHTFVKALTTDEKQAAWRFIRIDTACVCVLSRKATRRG

B1: caninised anti-NGF antibody comprising the caN-HCA heavy chain and caN-kLC light chain (antibody)
heavy: EVQLVESGGDLVNPGGTLTLSCVVSGFSLTNNNVNWVRQALGRGLEWVGGVWAGGATDYNSALKSRLTITRDTSKSTVFLKMHSLQSEDTATYYCARDGGYSSSTLYAMDAWGQGTLVTVSSASTTAPSVFPLAPSCGSTSGSTVALACLVSGYFPEPVTVSWNSGSLTSGVHTFPSVLQSSGLHSLSSMVTVPSSRWPSETFTCNVVHPASNTKVDKPVFNECRCTDTPPCPVPEPLGGPSVLIFPPKPKDILRITRTPEVTCVVLDLGREDPEVQISWFVDGKEVHTAKTQSREQQFNGTYRVVSVLPIEHQDWLTGKEFKCRVNHIDLPSPIERTISKARGRAHKPSVYVLPPSPKELSSSDTVSITCLIKDFYPPDIDVEWQSNGQQEPERKHRMTPPQLDEDGSYFLYSKLSVDKSRWQQGDPFTCAVMHETLQNHYTDLSLSHSPGK
light: DIQMTQSPASLSLSQEEKVTITCRASEDIYNALAWYQQKPGQAPKLLIYNTDTLHTGVPSRFSGSGSGTEYSLTINSLESEDVAVYFCQHYFHYPRTFGAGTKVELKRNDAQPAVYLFQPSPDQLHTGSASVVCLLNSFYPKDINVKWKVDGVIQDTGIQESVTEQDKDSTYSLSSTLTMSSTEYLSHELYSCEITHKSLPSTLIKSFQRSECQRVD
notes: Tested as CHO cell transfectant supernatant; also called A-HCA; caN-HCA+caN-kLC1
- binding result [1]: no binding
- binding result (mouse NGF): binds
